Measurements: the FLAb antibody collection

B1: unnamed (protein)
chain 1: EVHLVESGGALVKPGGSLRLSCAASGFSFSKYGMSWVRQAPGKGLEWVATISSSGSRTYYPDSVKGRFTISRDNAKNTLYLQMNSLRAEDTAMYYCSISWDGAMDYWGQGTTVTVSS
chain 2: DVVMTQSPLSLPVTLGQPASISCKSSQSIVHSNGNTYLEWYLQKPGQSPQLLVYKVSNRFSGVPDRFSGSGSGTDFTLKISRVEAEDVGTYYCFQGSLVPWAFGGGTKVEIK
B2: unnamed (protein)
chain 1: EVQLLESGGGLVQPGGSLRLSCAASGFTFSSYAMNWVRQAPGKGLEWVSAITMSGITAYYTDDVKGRFTISRDNSKNTLYLQMNSLRAEDTAVYYCAKEEFLPGTHYYYGMDVWGQGTTVTVSS
chain 2: AIQMTQSPSSLSASVGDRVTITCRASQGIRNDLGWYQQKPGKAPKLLIYSASTLQSGVPSRFSGSGSGTDFTLTISSLQPEDFATYCLQDYNYPWTFGQGTKVEIK
B3: unnamed (protein)
chain 1: EVQLVQSGAEVKKPGESLKISCKGSGYSFSNYWIGWVRQMPGKGLEWMGIIDPSNSYTRYSPSFQGQVTISADKSISTAYLQWSSLKASDTAMYYCARWYYKPFDVWGQGTLVTVSS
chain 2: QSVLTQPPSVSGAPGQRVTISCTGSSSNIGSGYDVHWYQQLPGTAPKLLIYGNSKRPSGVPDRFSGSKSGTSASLAITGLQSEDEADYYCASWTDGLSLVVFGGGTKLTVL
B4: unnamed (protein)
chain 1: QVQLQQSGPEVVKPGASVKMSCKASGYTFTSYVIHWVRQKPGQGLDWIGYINPYNDGTDYDEKFKGKATLTSDTSTSTAYMELSSLRSEDTAVYYCAREKDNYATGAWFAYWGQGTLVTVSS
chain 2: DIVMTQSPDSLAVSLGERVTMNCKSSQSLLYSTNQKNYLAWYQQKPGQSPKLLIYWASTRESGVPDRFSGSGSGTDFTLTISSVQAEDVAVYYCQQYYSYRTFGGGTKLEIK
B5: unnamed (protein)
chain 1: QAYLQQSGAELVRPGASVKMSCKASGYTFTSYNMHWVKQTPRQGLEWIGAIYPGNGDTSYNQKFKGKATLTVDKSSSTAYMQLSSLTSEDSAVYFCARVVYYSNSYWYFDVWGTGTTVTVSA
chain 2: QIVLSQSPAILSASPGEKVTMTCRASSSVSYMHWYQQKPGSSPKPWIYAPSNLASGVPARFSGSGSGTSYSLTISRVEAEDAATYYCQQWSFNPPTFGAGTKLELK

Assay: patients with anti-drug antibodies; higher = more immunogenic

Protein | patients with anti-drug antibodies
B1 | 6.2%
B2 | 2.5%
B3 | 6%
B4 | 15%
B5 | 1.9%
